Literature values as cited in paper PMC8044391.

Molecular target: ICAM-1 (Homo sapiens) (UniProt P05362)
Sequence (P05362 28-480): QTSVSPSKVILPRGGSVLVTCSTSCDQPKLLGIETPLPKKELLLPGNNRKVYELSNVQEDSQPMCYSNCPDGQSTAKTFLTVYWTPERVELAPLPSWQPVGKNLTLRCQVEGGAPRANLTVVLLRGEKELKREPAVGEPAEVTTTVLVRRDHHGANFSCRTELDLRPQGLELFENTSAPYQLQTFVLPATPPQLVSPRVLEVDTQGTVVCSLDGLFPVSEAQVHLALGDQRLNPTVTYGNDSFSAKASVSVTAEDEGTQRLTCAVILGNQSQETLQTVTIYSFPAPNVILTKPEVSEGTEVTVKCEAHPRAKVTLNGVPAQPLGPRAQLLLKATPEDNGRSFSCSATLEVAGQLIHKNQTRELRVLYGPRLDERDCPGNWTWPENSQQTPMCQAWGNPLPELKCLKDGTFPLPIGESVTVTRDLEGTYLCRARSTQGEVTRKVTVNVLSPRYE

Sequence of integrin αLβ2 (P20701 26-1090): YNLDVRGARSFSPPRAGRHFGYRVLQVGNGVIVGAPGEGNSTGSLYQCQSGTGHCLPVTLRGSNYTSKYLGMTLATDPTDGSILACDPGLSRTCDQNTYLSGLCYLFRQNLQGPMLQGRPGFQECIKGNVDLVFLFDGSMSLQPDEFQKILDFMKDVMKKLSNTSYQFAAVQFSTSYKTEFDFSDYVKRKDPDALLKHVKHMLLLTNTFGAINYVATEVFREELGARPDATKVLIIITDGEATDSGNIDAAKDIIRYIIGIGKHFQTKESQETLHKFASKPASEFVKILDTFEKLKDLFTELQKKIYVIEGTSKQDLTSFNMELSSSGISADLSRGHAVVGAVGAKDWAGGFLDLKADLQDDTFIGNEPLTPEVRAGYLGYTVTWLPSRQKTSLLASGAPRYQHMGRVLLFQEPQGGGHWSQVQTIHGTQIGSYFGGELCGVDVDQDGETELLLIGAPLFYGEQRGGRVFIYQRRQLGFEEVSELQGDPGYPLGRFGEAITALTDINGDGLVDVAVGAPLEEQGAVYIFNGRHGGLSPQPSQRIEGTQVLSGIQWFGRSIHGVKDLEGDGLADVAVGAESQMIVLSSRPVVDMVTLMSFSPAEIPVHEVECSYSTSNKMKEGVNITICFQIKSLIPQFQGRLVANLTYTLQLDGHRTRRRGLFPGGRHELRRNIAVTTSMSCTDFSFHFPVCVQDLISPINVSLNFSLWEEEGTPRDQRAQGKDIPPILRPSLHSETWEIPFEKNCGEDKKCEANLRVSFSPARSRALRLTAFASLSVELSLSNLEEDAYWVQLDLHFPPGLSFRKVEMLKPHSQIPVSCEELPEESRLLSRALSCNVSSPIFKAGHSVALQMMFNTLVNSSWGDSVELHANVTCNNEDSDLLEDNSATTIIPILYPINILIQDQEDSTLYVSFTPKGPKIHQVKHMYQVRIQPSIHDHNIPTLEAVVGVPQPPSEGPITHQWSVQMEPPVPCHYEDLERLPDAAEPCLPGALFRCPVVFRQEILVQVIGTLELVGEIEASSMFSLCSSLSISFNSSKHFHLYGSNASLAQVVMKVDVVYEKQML
Sequence of integrin αLβ2 (P05107 23-700, further chain): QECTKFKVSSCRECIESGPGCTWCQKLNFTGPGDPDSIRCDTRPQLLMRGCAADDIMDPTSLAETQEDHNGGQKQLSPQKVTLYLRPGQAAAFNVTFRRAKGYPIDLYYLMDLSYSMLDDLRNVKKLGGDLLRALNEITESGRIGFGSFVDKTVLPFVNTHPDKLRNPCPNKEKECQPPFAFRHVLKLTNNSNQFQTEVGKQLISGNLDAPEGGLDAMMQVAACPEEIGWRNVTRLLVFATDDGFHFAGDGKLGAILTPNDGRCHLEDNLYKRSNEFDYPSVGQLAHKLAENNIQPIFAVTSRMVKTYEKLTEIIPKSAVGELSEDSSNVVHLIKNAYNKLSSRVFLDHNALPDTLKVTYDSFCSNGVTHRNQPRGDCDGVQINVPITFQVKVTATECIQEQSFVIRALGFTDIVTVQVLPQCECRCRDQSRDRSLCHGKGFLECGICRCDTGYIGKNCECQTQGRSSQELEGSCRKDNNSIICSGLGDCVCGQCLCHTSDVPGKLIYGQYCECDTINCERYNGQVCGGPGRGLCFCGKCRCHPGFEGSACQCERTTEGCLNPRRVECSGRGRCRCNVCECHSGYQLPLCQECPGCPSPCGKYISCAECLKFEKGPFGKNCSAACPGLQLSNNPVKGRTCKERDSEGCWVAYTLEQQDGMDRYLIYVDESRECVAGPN

- Kd: 26 µM
Substance: integrin αLβ2 (from UniProt P20701)
